Test results published in PMC8605023.

How the values were obtained:
[1] = target: ATG9A FITC-…
[2] = target: FITC-SQSTM1 peptide 335-344 (human)
[3] = target: SQSTM1 FITC-…
[4] = target: USP7 (human) (UniProt Q93009)
[5] = target: AP2M1 (human) (UniProt Q96CW1)
[6] = target: G3BP2 NTF2 domain (human) (UniProt Q9UN86)
[7] = target: G3BP1 NTF2 domain (human) (UniProt Q13283)
[8] = target: MAP1LC3C ATG8 domain (human) (UniProt Q9BXW4)
[9] = target: USP7 MATH; experiment: FP
[10] = target: ATG8 domain of MAP1LC3C (human) (UniProt Q9BXW4); experiment: FP
[11] = target: FITC-MDM2 peptide (human)

Chain of G3BP2 NTF2 domain (human) (Q9UN86 11-133): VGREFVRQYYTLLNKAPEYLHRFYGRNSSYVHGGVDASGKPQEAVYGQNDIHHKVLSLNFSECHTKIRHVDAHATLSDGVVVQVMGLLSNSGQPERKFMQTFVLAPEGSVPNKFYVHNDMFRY
Chain of AP2M1 (human) (Q96CW1 whole entry, the tested form may be a part): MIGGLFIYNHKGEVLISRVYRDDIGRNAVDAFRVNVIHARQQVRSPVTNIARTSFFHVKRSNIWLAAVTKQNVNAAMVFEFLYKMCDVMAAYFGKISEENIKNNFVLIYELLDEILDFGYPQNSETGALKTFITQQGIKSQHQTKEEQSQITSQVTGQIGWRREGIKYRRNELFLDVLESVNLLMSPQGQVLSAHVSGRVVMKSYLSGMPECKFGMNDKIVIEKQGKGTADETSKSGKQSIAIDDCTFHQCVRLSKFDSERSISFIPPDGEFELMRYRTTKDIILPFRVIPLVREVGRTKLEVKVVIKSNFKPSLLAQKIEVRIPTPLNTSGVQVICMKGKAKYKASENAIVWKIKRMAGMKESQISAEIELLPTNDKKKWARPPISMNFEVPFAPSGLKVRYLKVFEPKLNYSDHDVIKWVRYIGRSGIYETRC
Chain of USP7 (human) (Q93009 whole entry): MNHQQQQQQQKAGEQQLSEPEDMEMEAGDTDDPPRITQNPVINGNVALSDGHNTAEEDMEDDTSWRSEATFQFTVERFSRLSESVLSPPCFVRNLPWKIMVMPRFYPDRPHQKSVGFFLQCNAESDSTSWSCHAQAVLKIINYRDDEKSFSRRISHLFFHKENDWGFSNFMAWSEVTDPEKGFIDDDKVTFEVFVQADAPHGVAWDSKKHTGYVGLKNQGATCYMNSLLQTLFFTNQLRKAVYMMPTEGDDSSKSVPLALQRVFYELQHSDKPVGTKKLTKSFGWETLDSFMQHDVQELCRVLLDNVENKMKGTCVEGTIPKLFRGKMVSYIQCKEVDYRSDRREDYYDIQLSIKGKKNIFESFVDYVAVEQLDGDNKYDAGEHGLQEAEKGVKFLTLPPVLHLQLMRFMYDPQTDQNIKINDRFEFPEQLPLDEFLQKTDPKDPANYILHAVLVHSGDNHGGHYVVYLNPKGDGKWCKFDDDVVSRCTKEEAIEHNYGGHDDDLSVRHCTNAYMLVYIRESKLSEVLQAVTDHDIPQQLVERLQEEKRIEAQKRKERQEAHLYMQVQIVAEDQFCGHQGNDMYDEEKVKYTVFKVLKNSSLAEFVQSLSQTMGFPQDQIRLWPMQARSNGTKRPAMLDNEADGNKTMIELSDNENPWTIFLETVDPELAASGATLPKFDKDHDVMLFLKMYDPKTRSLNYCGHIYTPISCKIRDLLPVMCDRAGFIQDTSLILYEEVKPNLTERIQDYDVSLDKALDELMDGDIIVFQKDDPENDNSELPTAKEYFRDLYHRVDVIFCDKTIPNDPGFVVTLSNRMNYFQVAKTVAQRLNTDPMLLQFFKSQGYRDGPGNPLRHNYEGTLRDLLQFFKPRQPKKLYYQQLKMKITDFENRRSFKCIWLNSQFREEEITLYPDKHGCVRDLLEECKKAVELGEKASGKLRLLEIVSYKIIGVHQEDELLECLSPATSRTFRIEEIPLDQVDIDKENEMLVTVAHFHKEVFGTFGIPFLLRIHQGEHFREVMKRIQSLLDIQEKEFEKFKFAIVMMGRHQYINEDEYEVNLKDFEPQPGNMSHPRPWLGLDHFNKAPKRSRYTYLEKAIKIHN
Chain of G3BP1 NTF2 domain (human) (Q13283 11-133): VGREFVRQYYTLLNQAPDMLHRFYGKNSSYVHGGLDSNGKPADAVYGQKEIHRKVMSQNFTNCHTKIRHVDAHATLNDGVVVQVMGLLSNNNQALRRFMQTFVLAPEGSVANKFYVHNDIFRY
Chain of MAP1LC3C ATG8 domain (human) (Q9BXW4 1-126): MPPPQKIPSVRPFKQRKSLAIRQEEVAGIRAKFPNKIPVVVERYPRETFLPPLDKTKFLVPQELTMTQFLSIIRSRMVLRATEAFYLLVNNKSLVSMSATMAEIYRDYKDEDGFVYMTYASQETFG
Chain of ATG8 domain of MAP1LC3C (human) (Q9BXW4 whole entry, the tested form may be a part): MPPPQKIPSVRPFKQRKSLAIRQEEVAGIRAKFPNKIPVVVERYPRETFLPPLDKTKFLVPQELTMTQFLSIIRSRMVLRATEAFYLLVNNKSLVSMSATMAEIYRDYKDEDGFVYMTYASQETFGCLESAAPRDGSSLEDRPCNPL

AP2M1 (from UniProt Q96CW1 1-435) (domain or fragment)
Kd [1]: 1.1 µM

MAP1LC3C ATG8 domain (from UniProt Q9BXW4 1-126) (domain or fragment)
Kd [2]: 1.1 µM
Kd [3]: 1.1 µM

N peptide 206-220 (Sars-CoV)
IC50 [4]: 1500 µM
Ki [4]: 220 µM

N peptide 353-367 (Sars-CoV2/Sars-CoV)
IC50 [5]: 1530 µM
Ki [5]: 530 µM

N peptide 406-422 (Sars-CoV)
IC50 [4]: 690 µM
Ki [4]: 96 µM

NSP1 peptide 161-177 (Sars-CoV)
IC50 [4]: 2000 µM
Ki [4]: 280 µM

NSP3 peptide 1785-1796 (SFV, Semliki-Forest-Virus)
IC50 [6]: 13 µM
IC50 [7]: 23 µM

NSP3 peptide 1785-1809 (SFV, Semliki-Forest-Virus)
IC50 [6]: 0.0019 µM
Ki [6]: 0.15 µM
IC50 [7]: 0.0044 µM

NSP3 peptide 1796-1809 (SFV, Semliki-Forest-Virus)
IC50 [6]: 11 µM

NSP3 peptide 1996-2011 (Sars-CoV)
IC50 [8]: 200 µM
Ki [8]: 28 µM
IC50 [4]: 210 µM
Ki [4]: 29 µM

NSP4 peptide 3248-3263 (Sars-CoV2/Sars-CoV)
IC50 [4]: 480 µM
Ki [4]: 67 µM

NSP14 peptide 6498-6512 (Mers)
Ki [5]: 3 µM

SARS-CoV N 205-219
Kd [9]: 220 µM

SARS-CoV N 405-419
Kd [9]: 96 µM

SARS-CoV NSP1 161-176
Kd [9]: 280 µM

SARS-CoV NSP3 2019-2034
Kd [9]: 29 µM

SARS-CoV NSP3 2019-2038
Kd [10]: 28 µM

SARS-CoV NSP4 3248-3263
Kd [9]: 67 µM

SARS-CoV-2 N 405-419
Kd [9]: 150 µM

SARS-CoV-2 NSP3 2019-2034
Kd [9]: 37 µM

SARS-CoV-2 NSP3 2019-2038
Kd [10]: 210 µM

SARS-CoV-2 NSP4 3248-3263
Kd [9]: 67 µM

USP7 (from UniProt Q93009 1-1102) (domain or fragment)
Kd [11]: 0.49 µM
